In this assay the target is T1, human transferrin receptor-Fc tag standard (human, UniProt P02786 89-760, limits assumed).
T1 construct: Coated on a 96 well plate at 2 ug/ml; also called hTfR; not shown: Fc tag
As to the kind of experiment: ELISA on plate-bound hTfR-Fc with anti-His detection; Kd calculated from an expected saturation point, since the curve was not saturated.

T1 sequence (P02786 89-760 limits assumed): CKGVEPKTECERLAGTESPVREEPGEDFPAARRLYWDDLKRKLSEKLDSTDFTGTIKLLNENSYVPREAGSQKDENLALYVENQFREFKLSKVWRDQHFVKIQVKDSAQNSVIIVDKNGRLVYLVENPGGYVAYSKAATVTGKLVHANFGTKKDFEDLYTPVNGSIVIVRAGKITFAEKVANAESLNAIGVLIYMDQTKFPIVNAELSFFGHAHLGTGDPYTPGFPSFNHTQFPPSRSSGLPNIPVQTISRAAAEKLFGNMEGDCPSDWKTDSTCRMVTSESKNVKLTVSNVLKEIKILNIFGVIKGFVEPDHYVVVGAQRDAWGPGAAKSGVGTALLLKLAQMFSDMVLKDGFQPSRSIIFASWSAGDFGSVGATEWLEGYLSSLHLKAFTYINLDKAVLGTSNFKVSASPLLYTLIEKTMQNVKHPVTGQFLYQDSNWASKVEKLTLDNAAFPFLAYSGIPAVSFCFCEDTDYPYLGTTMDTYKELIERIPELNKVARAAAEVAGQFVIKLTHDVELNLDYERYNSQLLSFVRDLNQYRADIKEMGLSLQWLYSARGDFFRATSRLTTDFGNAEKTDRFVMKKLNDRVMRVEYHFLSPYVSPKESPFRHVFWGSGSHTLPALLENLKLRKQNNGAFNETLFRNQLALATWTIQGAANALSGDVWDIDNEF

B1: huHF_Mutant2-dual (designed binder)
chain: MTTASTSQVRQNYHAASEAAINAQINLELYASYVYLSMSYYFDRDDVALKNFAKYFLHQSHEEREHAEKLMKLQNQRGGRIALADIQKPDCDDGGSYGSLYAFDIWESGLNAMECALHLEKNVNQSLLALHALATAKNDPHLCDFIETHYLNEQVKAIKELGDHVTNLRKMGAPESGLAEYLFDKHTLGDSDNESMPSFITLASLSTWEGYFDF
notes: Spherical nanoparticle of 24 self-assembled monomers, made in E. coli; not shown: A hexa-His tag is present (Ni-NTA purification, anti-His detection)
Turning to B1, the Kd – broadly, the equilibrium constant for the complex coming apart – is approximately 4.4 µM.

The values are drawn from patent EP4335867A1 (Cellemedy Co., Ltd, dated 2024).
